The labels stand for the following.
B1: Azoarcus group I ribozyme (parent)
chain: GUGCCUUGCGCCGGGAAACCACGCAAGGGAUGGUGUCAAAUUCGGCGAAACCUAAGCGCCCGCCCGGGCGUAUGGCAACGCCGAGCCAAGCUUCGGCGCCUGCGCCGAUGAAGGUGUAGAGACUAGACGGCACCCACCUAAGGCAAACGCUAUGGUGAAGGCAUAGUCCAGGGAGUGGCGAAAGUCACACAAACCGG

The values below come from the RNAGym collection of RNA variant scans (doi:10.1093/molbev/msab373).

The variants in the data set derive from B1. In words: reverse-splicing fitness (ratio to wild type); higher = more active; in vitro selection; Mg2+ level not given. In a few lines:
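An in vitro group I ribozyme library with randomized positions was T7-transcribed and gel-purified. In triplicate, 10 pmol RNA in EPPS pH 7.5 was reacted with 50 pmoles of a 30-nt RNA substrate for 1 h at 37 °C across several added MgCl2 levels (1–48 mM), then stopped with EDTA. Products were reverse transcribed from a substrate-complementary primer, PCR-amplified and sequenced (HiSeq 4000). Fitness is a variant's read proportion after selection over that before, normalised to wild type.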
For A145G C169G U176C, the reverse-splicing fitness amounted to 0.14.

Turning to C82U A111C A120C C150G C169G, the reverse-splicing fitness came out at 0.00626.

Consider C82U A111G A120G A145G C169U U176A, for which the reverse-splicing fitness turned out to be 0.0209.

Regarding C82G A111C A145C U176A, the reverse-splicing fitness stood at 0.126.

On to C82G A120U A145U C150U C169U U176C, for which the reverse-splicing fitness turned out to be 0.00342.

As for C82U A111G A120C A145C C169U, the reverse-splicing fitness amounted to 0.0106.

Consider C82U A111U A120U C150U C169U, for which the reverse-splicing fitness came out at 0.00426.

With C82U A111U A120U C150U C169A, the reverse-splicing fitness amounted to 0.00397.

For C82A A111G A120U A145U C150A U176G, the reverse-splicing fitness amounted to 0.00197.

C82A A111C A120G A145G C150A U176A: the reverse-splicing fitness worked out at 0.00969.

Consider C82U A145C C150G C169U U176A, for which the reverse-splicing fitness turned out to be 0.00881.

As to A111C A120C A145U C150U C169U, the reverse-splicing fitness was determined as 0.125.

As for C82G A111G A145G C150U C169A U176G, the reverse-splicing fitness came out at 0.00698.

A111C A120G A145G C150G U176G: the reverse-splicing fitness was 0.00613.

Consider C82G A111G A120U C150G C169A U176C, for which the reverse-splicing fitness stood at 0.00831.

As to C82U A111C A120C A145C C150U C169A U176C, the reverse-splicing fitness came to 0.00703.

Take C82G A111U A120G A145G C150U C169U: the reverse-splicing fitness was found to be 0.0112.

Consider C82A A111C A120U A145C C150A C169U, for which the reverse-splicing fitness is 0.00355.

Turning to A111U A120C A145G C169G, the reverse-splicing fitness stood at 0.0095.

As to C82A A145U C169U U176G, the reverse-splicing fitness was 0.00434.

Turning to C82A A111U A120G A145G C150A, the reverse-splicing fitness worked out at 0.0095.

With C82A A111U A145U C150G C169G U176A, the reverse-splicing fitness was determined as 0.00742.

C82G A111G A120C A145G C150A C169A U176C: the reverse-splicing fitness is 0.0227.

C82U A111C A120C A145U C150A C169A U176A: the reverse-splicing fitness was 0.0117.

In the case of C82A A111U A120U A145C C169G, the reverse-splicing fitness turned out to be 0.00342.

As for A111C A120G C150G C169U U176C, the reverse-splicing fitness worked out at 0.0154.

C82U A120G A145U C150A C169A U176G: the reverse-splicing fitness stood at 0.00335.

C82U A111U A120U A145C C169U U176A: the reverse-splicing fitness amounted to 0.00247.

Turning to C82U A111G A145C C150G C169G U176C, the reverse-splicing fitness turned out to be 0.00634.

With C82A A120U A145U C150U C169U U176G, the reverse-splicing fitness amounted to 0.00221.

For C82A A111C A145C U176C, the reverse-splicing fitness is 0.0878.

With A111U A120C A145U C169U, the reverse-splicing fitness turned out to be 0.168.

On to A111C A120C A145C C150G C169G, for which the reverse-splicing fitness amounted to 0.0064.

Turning to A120C A145C C150G C169G U176C, the reverse-splicing fitness turned out to be 0.00582.

For C82U A145U C150A C169A U176C, the reverse-splicing fitness is 0.00744.

Take C82U A111G U176A: the reverse-splicing fitness stood at 0.193.

Consider C82A A111G A145G C169U U176A, for which the reverse-splicing fitness is 0.0137.

On to C82G A145U U176A, for which the reverse-splicing fitness was found to be 0.395.

For A111G A120G A145G C169G U176G, the reverse-splicing fitness is 0.00622.

Take C82A A111G A120G C169A U176C: the reverse-splicing fitness was 0.0213.

With C82U A120G A145U C150G C169A U176G, the reverse-splicing fitness was 0.00411.

C82G A111U A120U A145U C150A C169A U176A: the reverse-splicing fitness worked out at 0.00349.

For C82A A111U A145U C150U C169U U176A, the reverse-splicing fitness worked out at 0.0147.

For the variant C82A A111G A120G C150U C169G U176C, the reverse-splicing fitness stood at 0.0192.

Regarding C82G A145U C169G U176A, the reverse-splicing fitness worked out at 0.00948.

C82G A111G A120U C169G U176G: the reverse-splicing fitness was found to be 0.00169.

In the case of C82U A111G A145C C169U U176G, the reverse-splicing fitness was found to be 0.00386.

On to C82G A120U A145C C150A C169A, for which the reverse-splicing fitness was found to be 0.00159.

For C82G A120U A145U C169U, the reverse-splicing fitness came to 0.00672.

As to C150U C169U U176G, the reverse-splicing fitness was found to be 0.0109.

With A120G A145U C150U C169U U176A, the reverse-splicing fitness was 0.14.

As to C82G A111G A120C A145C C169U U176G, the reverse-splicing fitness was found to be 0.00475.

Turning to C82U A111G A120G U176C, the reverse-splicing fitness turned out to be 0.0144.

Consider C82U A111G A120C C150U C169A, for which the reverse-splicing fitness was 0.00965.

With C82A A120G A145U C150G C169A U176A, the reverse-splicing fitness is 0.0097.

On to C82A A120G A145U C150A, for which the reverse-splicing fitness was 0.00826.

For A111C A120G A145G C150G, the reverse-splicing fitness worked out at 0.0228.

With C82U A120C A145G U176G, the reverse-splicing fitness amounted to 0.00954.

In the case of C82A A111G A120C A145G C150G C169G U176G, the reverse-splicing fitness was found to be 0.00644.

For C82A A111U A145C C150U U176C, the reverse-splicing fitness came to 0.0396.

Regarding C82A A120C A145U C150U U176G, the reverse-splicing fitness stood at 0.00864.

With C82G A111U A120U A145G C150A C169A U176C, the reverse-splicing fitness came to 0.00438.

For the variant C82G A111U A120U C150A, the reverse-splicing fitness worked out at 0.00965.

Consider C82A A111G A120U A145U C150U C169U U176C, for which the reverse-splicing fitness was found to be 0.00305.

In the case of C82U A111U A120C C150G C169U U176G, the reverse-splicing fitness came to 0.00538.

As to A120G A145U C150U C169A, the reverse-splicing fitness turned out to be 0.33.

Turning to A111C A120G A145G C150A U176G, the reverse-splicing fitness was 0.0068.

As to C82G A120C A145U C150U C169G, the reverse-splicing fitness was 0.00838.

As to C82G A120C A145U C150U C169U, the reverse-splicing fitness was found to be 0.0172.

Consider C82A A111C A120U A145C C150U C169G, for which the reverse-splicing fitness came out at 0.00378.

Consider C82A A111U A120U C169U, for which the reverse-splicing fitness amounted to 0.00502.

On to C82U A120U A145C C169U U176G, for which the reverse-splicing fitness is 0.00172.

With C82A A111U A145U C150A C169U U176G, the reverse-splicing fitness turned out to be 0.00771.

For A120U A145U C150U C169U, the reverse-splicing fitness came to 0.197.

As for C82G A111G C150A C169G U176C, the reverse-splicing fitness worked out at 0.0228.

C82G A111C A120G A145C C150U C169U: the reverse-splicing fitness turned out to be 0.00687.

On to C82A A111C A120U A145G C150G C169U, for which the reverse-splicing fitness was 0.00759.

Regarding C82A A120U A145G C150U C169G U176G, the reverse-splicing fitness was 0.00214.

Take C82A A120U A145G C150U C169G U176A: the reverse-splicing fitness worked out at 0.00591.

Turning to C82U A111C A120G A145U C150G C169A U176A, the reverse-splicing fitness was 0.0108.

As to C82G A111C A145G C150U C169G U176C, the reverse-splicing fitness is 0.0159.

For the variant C82A A111G A120U A145G C150G C169U U176C, the reverse-splicing fitness was 0.00796.

As to A111U A120G A145C C150G C169G U176G, the reverse-splicing fitness was 0.00359.
